From patent US20080166364A1 (COVX TECHNOLOGY IRELAND, published 2008)
Non-standard residues stand in square brackets, D forms with d. No end group written: not given here. Phe(4-NO2) = N[C@@H](Cc1ccc([N+](=O)[O-])cc1)C(=O)O; Phe(4-COOH) = N[C@@H](Cc1ccc(C(=O)O)cc1)C(=O)O; Bpa = N[C@@H](Cc1ccc(C(=O)c2ccccc2)cc1)C(=O)O; Hyp = O=C(O)[C@@H]1C[C@@H](O)CN1; 0P linker = not defined here; acyl = not defined here; ThA = thiazolylalanine

T1: human angiopoietin-2 protein (human, UniProt O15123 19-496)
T1 construct: bought; also called Ang-2; Ang2
T1 sequence (looked up): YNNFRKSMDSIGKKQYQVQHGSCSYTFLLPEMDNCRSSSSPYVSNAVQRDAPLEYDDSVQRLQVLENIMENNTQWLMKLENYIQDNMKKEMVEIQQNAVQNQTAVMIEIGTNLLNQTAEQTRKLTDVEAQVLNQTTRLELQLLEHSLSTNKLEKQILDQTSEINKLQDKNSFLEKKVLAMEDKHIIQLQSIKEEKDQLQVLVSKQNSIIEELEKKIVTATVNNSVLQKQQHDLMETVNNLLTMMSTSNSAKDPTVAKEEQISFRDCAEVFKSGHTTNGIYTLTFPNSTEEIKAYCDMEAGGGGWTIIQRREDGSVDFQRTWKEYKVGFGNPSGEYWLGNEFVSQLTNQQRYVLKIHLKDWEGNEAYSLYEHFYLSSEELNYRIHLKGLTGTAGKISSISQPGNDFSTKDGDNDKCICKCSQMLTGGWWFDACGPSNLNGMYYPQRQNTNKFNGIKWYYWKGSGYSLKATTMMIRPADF


Each binder was assayed against T1, human angiopoietin-2 protein (assay: competitive ELISA, coated Ang-2, 0.25 nM hTie-2-Fc; T form).
Procedure: For competitive ELISA, human angiopoietin-2 protein and Tie-2-Fc (R&D Systems) were reconstituted without carrier protein. Mouse anti-human Tie-2 (Pharmingen) was used as the primary antibody and goat anti-mouse-IgG1-HRP (Pierce) was used as the secondary antibody. TMB substrate from Pierce was used.
High-binding half-well plates were coated with Ang-2 (100 ng/well) in 50 μl PBS and incubated at 4° C. overnight. Plates were washed three times with washing buffer (0.1% Tween 20, PBS, pH 7.4) and blocked with Superblock (Scytek), 100 μl/well at room temperature (“RT”) for 1 hour. After removing the blocking solution, 50 μl of an Ang-2 binding peptide compound (1 uM and 5× serial dilution) in the presence of 0.25 nM hTie-2-Fc using Superblock as diluent was added and incubated at RT for 2 hours. Plates were washed 3 times with washing buffer. Then, 50 ul of 0.1 ug/ml mouse anti-human Tie-2 diluted in Superblock added and incubated at RT for 1 hour. Following incubation, 50 ul of 1:5,000 dilution of goat anti-mouse IgG-HRP in Superblock was then added and incubated at RT for one hour. After washing 3 times, 50 μl (25 μl TMB+25 μl H₂O₂) was added, and incubated for 3-5 minutes. Color development was monitored and stopped with 25 μl of 2 M H₂SO₄. OD450 nm with a correction wavelength of 540 nm was measured.

IC50 [nM]	Binder
300	QNYQPLDELDXTLYDQFMLQQG (not fully specified; N-term acyl cap; C-term NH2 cap; 4P linker on K11) [Compound 25 (T): targeting peptide plus 4P linker]
29	QKYQPLDELDXTLYDQFMLQQG (not fully specified; N-term acyl cap; C-term NH2 cap; 0P linker on K11) [Compound 27 (T): targeting peptide plus 0P linker]
177	QRYQPLDELDXTLYDQFMLQQG (not fully specified; N-term acyl cap; C-term NH2 cap; 0P linker on K11) [Compound 59 (T): targeting peptide plus 0P linker]
214	QHYQPLDELDXTLYDQFMLQQG (not fully specified; N-term acyl cap; C-term NH2 cap; 0P linker on K11) [Compound 60 (T): targeting peptide plus 0P linker]
175	QNYQPLDELDXTLYDQFMLQQG (not fully specified; N-term acyl cap; C-term NH2 cap; 0P linker on K11) [Compound 28 (T): targeting peptide plus 0P linker]
83.3	QXYQPLDELDXTLYDQFMLQQG (not fully specified; N-term acyl cap; C-term NH2 cap; AcK at 2; 0P linker on K11) [Compound 29 (T): targeting peptide plus 0P linker]
279	QXYQPLDEXDXTLYDQFMLQQG (not fully specified; N-term acyl cap; C-term NH2 cap; AcK at 2; 0P linker on K9; AcK at 11) [Compound 30 (T): targeting peptide plus 0P linker]
370	QK(Ac)YQPLDEK(0P linker)DETLYDQFMLQQG (not fully specified (N-terminus, C-terminus); printed as Q(AcK)Y QPL DEK(0P) DET LYD QFM LQQ G; reading uncertain) [Compound 33 (T): targeting peptide plus 0P linker]
224	QXYQXLDELDXTLYDQFMLQQG (not fully specified; N-term acyl cap; C-term NH2 cap; AcK at 2; DHP at 5 (printed D(HP)); 0P linker on K11) [Compound 34 (T): targeting peptide plus 0P linker]
121	QXYQXLDELDXTLYDQFMLQQG (not fully specified; N-term acyl cap; C-term NH2 cap; AcK at 2; HP at 5; 0P linker on K11) [Compound 35 (T): targeting peptide plus 0P linker]
207	QXYQPLDELDXTLYDQFMLQQG (not fully specified; N-term acyl cap; C-term NH2 cap; AcK at 2; 4P linker on K11) [Compound 24 (T): targeting peptide plus 4P linker]
2410	QXYQPLDELDXTIYDQFMLQQG (not fully specified; N-term acyl cap; C-term NH2 cap; AcK at 2; 0P linker on K11) [Compound 36 (T): targeting peptide plus 0P linker]
1270	QXYQPLDEIDXTLYDQFMLQQG (not fully specified; N-term acyl cap; C-term NH2 cap; AcK at 2; 0P linker on K11) [Compound 37 (T): targeting peptide plus 0P linker]
36.9	QXYQPLDELDXTLFDQFMLQQG (not fully specified; N-term acyl cap; C-term NH2 cap; AcK at 2; 0P linker on K11) [Compound 44 (T): targeting peptide plus 0P linker]
4890	QXYQPLDELDXTXYDQFMLQQG (not fully specified; N-term acyl cap; C-term NH2 cap; AcK at 2; 0P linker on K11; HF at 13) [Compound 39 (T): targeting peptide plus 0P linker]
1340	QXYQPLDELDXTXYDQFMLQQG (not fully specified; N-term acyl cap; C-term NH2 cap; AcK at 2; 0P linker on K11; Nva at 13) [Compound 41 (T): targeting peptide plus 0P linker]
1340	QXYQPLDELDXTXYDQFMLQQG (not fully specified; N-term acyl cap; C-term NH2 cap; AcK at 2; 0P linker on K11; HL at 13) [Compound 42 (T): targeting peptide plus 0P linker]

IC50 [nM]	Binder
24.7	QK(Ac)YQ[Hyp]LDE[ThA]DK(0P linker)TL[Phe(4-NO2)]DQFMLQQG (not fully specified (N-terminus, C-terminus); printed as Q(AcK)Y Q(HP)L DE(ThA) DK(0P)T L(NO2F)D QFM LQQ G; reading uncertain) [Compound 45 (T): targeting peptide plus 0P linker]
82.7	acyl-QK(Ac)YQ[Hyp]LDE[ThA]DK(0P linker)TL[Bpa]DQFMLQQG-NH2 (reading uncertain) [Compound 46 (T): targeting peptide plus 0P linker]
43.3	acyl-QK(Ac)YQ[Hyp]LDE[ThA]DK(0P linker)TL[Phe(4-COOH)]DQFMLQQG-NH2 (reading uncertain; also: printed as Q(AcK)Y Q(HP)L DE(ThA) DK(0P)T L(CO2H)FD QFM LQQ G) [Compound 47 (T): targeting peptide plus 0P linker]
82.4	acyl-QK(Ac)YQPLDEK(Ac)DK(0P linker)TL[Phe(4-NO2)]DQFMLQQG-NH2 (reading uncertain; also: printed as Q(AcK)Y QPL DE(AcK) DK(0P)T L(NO2F)D QFM LQQ G) [Compound 48 (T): targeting peptide plus 0P linker]
28.4	QXYQPLDELDXTLYDQFMLQQG (N-term DCB (dichlorobenzoyl) cap; C-term NH2 cap; AcK at 2; 0P linker on K11) [Compound 49 (T): targeting peptide plus 0P linker]
33	QXYQPLDELDXTLYDQFMLQQG (N-term DFB (difluorobenzoyl) cap; C-term NH2 cap; AcK at 2; 0P linker on K11) [Compound 50 (T): targeting peptide plus 0P linker]
14.3	QXYQPLDELDXTLYDQFMLQQG (not fully specified; N-term PyC (pyridinyl carboxylate) cap; C-term NH2 cap; AcK at 2; 0P linker on K11) [Compound 51 (T): targeting peptide plus 0P linker]
134	QXYQPLDELDXTLYDQFMLQQG (not fully specified; N-term amido 2-PEG cap; C-term NH2 cap; AcK at 2; 0P linker on K11) [Compound 52 (T): targeting peptide plus 0P linker]
147	QXYQPLDELDXTLYDQFMLQQG (N-term acyl cap; C-term NH2 cap; (ClBnCarbamate)K at 2; 0P linker on K11, only one IC50 printed, standing in column T) [Compound 53 (T): targeting peptide plus 0P linker]
292	QXYQPLDELDXTLYDQFMLQQG (N-term acyl cap; C-term NH2 cap; AcK at 2; Dab at 11 carrying the 0P linker) [Compound 54 (T): targeting peptide plus 0P linker]
598	QXYQPLDELDXTLYDQFMLQQG (N-term acyl cap; C-term NH2 cap; AcK at 2; Dap at 11 carrying the 0P linker) [Compound 55 (T): targeting peptide plus 0P linker]
92.2	acyl-QNYQPLDELDK(0P linker)TL[Bpa]DQFMLQQG-NH2 (reading uncertain; also: printed as QNY QPL DEL DK(0P)T L(BPA)D QFM LQQ G) [Compound 56 (T): targeting peptide plus 0P linker]
110	QNYQPLDELDK(0P linker)TL[Phe(4-COOH)]DQFMLQQG (not fully specified (N-terminus, C-terminus); printed as QNY QPL DEL DK(0P)T L(CF)D QFM LQQ G; reading uncertain) [Compound 57 (T): targeting peptide plus 0P linker]
83.9	QXYQPLDELDXTLYDQFMLQQG (not fully specified; N-term acyl cap; C-term NH2 cap; NicK (nicotinyl lysine) at 2; 0P linker on K11, only one IC50 printed, standing in column T) [Compound 61 (T): targeting peptide plus 0P linker]
499	acyl-QK(Ac)YQPLDEK(Ac)DK(0P linker)TL[Phe(4-COOH)]DQFMLQQG-NH2 (reading uncertain; also: printed as Q(AcK)Y QPL DE(AcK) DK(0P)T L(CF)D QFM LQQ G) [Compound 62 (T): targeting peptide plus 0P linker]
32.3	XKYQPLDELDKTLYDQFMLQQG (not fully specified; 0P linker at the N-terminus (no acyl cap); C-term NH2 cap) [Compound 26 (T): targeting peptide plus 0P linker]

What follows are binders tested against T1, human angiopoietin-2 protein (assay: competition ELISA, coated Ang-2, competitor compound 43-0P-h38c2 10 ng/mL; T form).
Procedure: Recombinant human Ang-2 was coated on microtiter plates at 0.5 μg/mL in 100 μL , overnight at 2-8° C. Plates were washed between all steps and all subsequent incubations occurred at room temperature. Plates were blocked with 250 μL per well of SuperBlock for 1-3 hours. Test compounds were pre-mixed with compound 43 linked to linker (as shown in FIG. 3) and h38c2 AT 10 ng/mL. Peptide mixtures in 100 μL were then added at the listed final concentrations, then plates sealed, and incubated for 1-2 hours. Bound compounds 43 was detected with 100 uL of a 1:20,000 dilution of HRP-labeled anti-human IgG reagent for solution.

IC50 [nM]	Binder
139	QXYQPLDEXDXTLYDQFMLQQG (N-term ac; C-term am; AcK at 2; AcK at 9; 0P linker on K11) [Compound 43(a) (T): targeting peptide plus 0P linker]
111	Ac-QK(Ac)YQPLDEK(Ac)DK(0P linker)TLYDQFMLQQ-NH2 (reading uncertain, C-terminal truncation of 43(a) by 1 residue) [Compound 83 (T): targeting peptide plus 0P linker]
190	Ac-QK(Ac)YQPLDEK(Ac)DK(0P linker)TLYDQFMLQ-NH2 (reading uncertain, C-terminal truncation of 43(a) by 2 residues) [Compound 84 (T): targeting peptide plus 0P linker]
444	Ac-QK(Ac)YQPLDEK(Ac)DK(0P linker)TLYDQFML-NH2 (reading uncertain, C-terminal truncation of 43(a) by 3 residues) [Compound 85 (T): targeting peptide plus 0P linker]
847	Ac-QK(Ac)YQPLDEK(Ac)DK(0P linker)TLYDQFM-NH2 (reading uncertain, C-terminal truncation of 43(a) by 4 residues) [Compound 86 (T): targeting peptide plus 0P linker]
